Molecular target: α-thrombin
Assay: cell-based or functional assay

maximal second-order rate constant (k2) of thrombin inhibition, at ~20 µg/mL heparin: 5e+06 M⁻¹ s⁻¹
Substance: human heparin cofactor II 60-sTyr-73-sTyr (from UniProt P05546 20-499)

Reference: patent publication US20220119793A1
